Data: patent US20090075921A1, “Bone/joint disease sensitivity gene and use thereof” (Riken, priority 2004, published 2009)

Legend:
ATDC5 cells = assay: MTT assay of ATDC5 cell growth; type: cell-based, mouse
Protocol: ATDC5 was inoculated to a 12-well plate at 0.4×10^5 cells/well, and cultured using the medium 1-2 described in Example 19 for 24 hours, after which asporin and bFGF were added, and MTT assay was performed over time as described below. Specifically, the medium was removed by suction, the 1 mg/ml MTT reagent (DOJINDO) dissolved in DMEM/F12 was added at 1 ml/well, and the plate was incubated in a CO2 incubator for 1 hour. The supernatant was removed by suction, a Lysis reagent (86% isopropanol, 40 mM HCl, 1% SDS) was added to the plate at 0.2 ml/well, and extraction was performed at room temperature for 5 minutes. This extract was transferred to a 96-well plate, and OD550 was measured using a plate reader.

NHAC = assay: MTT assay of TGF-β1-stimulated cell growth in NHAC; type: cell-based, human; conditions: TGF-β1 40 ng/ml with asporin 5 or 20 μg/ml, 5 days
Protocol: NHAC was inculated to a 12-well plate at 1×10^5 cells/well, and cultured in a DMEM/F12 containing 10% FBS supplemented with TGF-β1 (40 ng/ml) and asporin (5 or 20 μg/ml) for 5 days, after which the degree of cell growth was examined by the MTT assay method described below. Specifically, 3-(4,5-dimethyl-2-thiazolyl)-2,5-diphenyl-2H-tetrazolium bromide (MTT, Dojindo Laboratory) was dissolved in DMEM/F12 to obtain a concentration of 1 mg/ml, the solution was added to the cells after the medium was removed by suction, and the cells were cultured at 37° C. for 1 hour. Thereafter the medium containing MTT was discarded, and the cells were subjected to extraction treatment using a Lysis reagent (86% isopropanol, 40 mM hydrochloric acid, 1% SDS). This cell lysate was transferred to a 96-well plate, and the absorbance at 550 nm was measured using a microplate reader.

TGF-β1 [1] = molecular target: T1, TGF-β1 (Homo sapiens, UniProt P01137); assay: Binding assay of purified recombinant mouse asporin and TGF-β by microplate assay method; conditions: biotinylated mouse asporin, TGF-β1-coated plate, OD405
Protocol: A binding assay was performed using the method described in Example 24 with a partial modification as described below. To a Maxisorp 96-well microplate of Nunc, a 1 μg/ml TGF-β1 solution prepared with 0.05M sodium carbonate buffer (pH 9.6) was dispensed at 100 μl/well, and the microplate was coated with TGF-β1 at 4° C. overnight. The TGF-β-coated wells were blocked in 200 μl/well of Block Ace at 37° C. for 3 hours. Next, mouse asporin and biotinylated mouse asporin, diluted with Block Ace, were added to obtain a total volume of 100 μl per well, and the microplate was incubated at 4° C. overnight. The wells were washed with […] of TBST three times, after which streptavidin-alkaline phosphatase (Novagen) diluted 1000 fold with TBST was added at […], and the microplate was incubated at room temperature for 1 hour. The wells were washed with 400 μl/well of TBST five times, and then colored using an alkaline phosphatase substrate kit (BIO-RAD), and the absorbance at 405 nm was measured using Ultramark Microplate Imaging System (BIO-RAD).

TGF-β1 [2] = molecular target: T1, TGF-β1; assay: Binding assay of asporin and TGF-β by pull-down assay method; conditions: S-Protein agarose precipitate, Western blotting
Protocol: With the pET29b-ASP13 and pET29b-ASP14 thus prepared as the templates, S-tagged human asporin D13 and D14 were prepared by performing a reaction in the presence of Transcend™ Biotin-Lysyl-tRNA using TNT Quick Coupled Transcription/Translation Systems (Promega). A reaction mixture comprising S-tagged human asporin D13 or D14 (10 μl) and TGF-β1 (0.1 μg) were mixed in buffer A (50 mM Tris (pH 7.5), 150 mM NaCl, 1% Triton X-100, complete protease inhibitor cocktail tablets (Roche)) at 4° C. for 1 hour, S-Protein agarose (Novagen, 12.5 μl) was added, and the mixture was further incubated at room temperature for 30 minutes. The precipitated resin was washed with buffer A five times, after which SDS-PAGE was performed under reducing conditions. S-tagged human asporin in the precipitate was detected by Western blotting using streptavidin-HRP (R&D Systems), and TGF-β1 was detected by Western blotting using biotinylated anti-TGF-β1 antibody (Genzyme). As a result of an examination of the binding of human asporin and TGF-β by the method described above, a band of TGF-β1 was detected in the precipitate comprising S-tagged human asporin D13 or D14 (FIG. 17).
Using the recombinant mouse asporin purified by the method described in Example 31, its capability of binding with TGF-β1 was examined by the method described in Example 22 (pull-down assay method); as a result, it was confirmed that TGF-β1 was detected in the precipitate of purified mouse asporin (FIG. 26).

[3] = test system: normal human articular chondrocytes of knee joint (NHAC); assay: Purified recombinant mouse asporin on TGF-β-stimulated gene expression in NHAC; type: cell-based
Protocol: NHAC purchased from Cambrex Company was cultured in the growth medium attached to the kit (chondrocyte growth medium, CGM) in a 10-cm petri dish, after which the cells were scraped with 0.05% Trypsin/EDTA, and inoculated to a 12-well plate at 10^5 cells/well; on the following day, the medium was exchanged with DMEM/F12+0.2% FBS; 5 hours later, asporin was added. After the cells were further cultured for 12 hours, TGF-β1 (40 ng/ml) was added; from the cells cultured for 48 hours, total RNA preparation, cDNA synthesis, and real-time PCR were performed according to the methods described in Example 12.
Using a cDNA prepared by the method described in Example 35, the expression of the asporin and TGF-β1 genes was examined by real-time PCR. […] From this, it was shown that asporin negatively regulated the expression of both the asporin and TGF-β1 genes in the presence of TGF-β1.

T1 sequence (P01137 279-390 limits assumed, species assumed): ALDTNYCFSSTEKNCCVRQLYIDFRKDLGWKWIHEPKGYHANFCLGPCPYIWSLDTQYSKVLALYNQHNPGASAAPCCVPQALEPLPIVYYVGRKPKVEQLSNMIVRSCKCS

binding to TGF-β1 (pull-down) (TGF-β1 [2]): bound to TGF-β1 in vitro
B1: purified mouse asporin: recombinant mouse asporin expressed in Escherichia coli, refolded from insoluble fraction and purified by gel filtration (protein)
chain: DMEDTDDDDNDDDDNSLFPTKEPVNPFFPFDLFPTCPFGCQCYSRVVHCSDLGLTSVPNNIPFDTRMVDLQNNKIKEIKENDFKGLTSLYALILNNNKLTKIHPKTFLTTKKLRRLYLSHNQLSEIPLNLPKSLAELRIHDNKVKKIQKDTFKGMNALHVLEMSANPLENNGIEPGAFEGVTVFHIRIAEAKLTSIPKGLPPTLLELHLDFNKISTVELEDLKRYRELQRLGLGNNRITDIENGTFANIPRVREIHLEHNKLKKIPSGLQELKYLQIIFLHYNSIAKVGVNDFCPTVPKMKKSLYSAISLFNNPMKYWEIQPATFRCVLGRMSVQLGNVGK
modifications: left off: small tags and cut ends
growth of ATDC5 cells (MTT, OD550) (ATDC5 cells; added alone, medium 1-2): suppressed the growth of ATDC5 cells concentration-dependently | growth suppressive effect of bFGF on ATDC5 cells (ATDC5 cells; addition of asporin 10 μg/ml): enhanced | cell growth of NHAC (MTT, absorbance at 550 nm) (NHAC): suppressed concentration-dependently | binding to TGF-β1 (microplate) (TGF-β1 [1]): bound to TGF-β1 concentration-dependently and specifically | TGF-β1-stimulated increases in expression of the asporin and TGF-β1 genes ([3]; NHAC, cDNA of Example 35): both suppressed | TGF-β1-stimulated expression of the type II collagen and aggrecan genes ([3]; TGF-β1 40 ng/ml, 48 hours): suppressed the TGF-β1-stimulated expression of the type II collagen and aggrecan genes in NHAC concentration-dependently
